According to US20030157645:
Numbering of substitutions follows the chain as printed. Numbers in names are those of the source.

B1: Subtilisin E (wild type) (protein)
chain: AQSVPYGISQIKAPALHSQGYTGSNVKVAVIDSGIDSSHPDLNVRGGASFVPSETNPYQDGSSHGTHVAGTIAALNNSIGVLGVSPSASLYAVKVLDSTGSGQYSWIINGIEWAISNNMDVINMSLGGPTGSTALKTVVDKAVSSGIVVAAAAGNEGSSGSTSTVGYPAKYPSTIAVGAVNSSNQRASFSSAGSELDVMAPGVSIQSTLPGGTYGAYNGTSMATPHVAGAAALILSKHPTWTNAQVRDRLESTATYLGNSFYYGKGLINVQAAAQ
B2: Variant 22 (E54D/Q103R/T133K/E156A/Y217H) (protein)
chain: B1 chain with E54D, Q103R, T133K, E156A, Y217H
B3: Variant 1 (Y6N/I31L/S38T/F50I/Q103R) (protein)
chain: B1 chain with Y6N, I31L, S38T, F50I, Q103R
B4: Variant 4 (Q103R/V138A/A150V/E156A/Y217H/Q271H) (protein)
chain: B1 chain with Q103R, V138A, A150V, E156A, Y217H, Q271H

biological target: fluorescent labeled casein or bovine serum albumin molecules

First: B1
Second: B2
The Km of the first is 7.5-fold higher: 194 µM for the first, 26 µM for the second.

Going from B3 to B4, the Km falls from 117 µM to 71 µM (1.6-fold).
